Test results published in article PMC8606531, “The Impact of Rare Human Variants on Barrier-To-Auto-Integration Factor 1 (Banf1) Structure and Function”.

Molecular target: T1, Banf1 WT (Homo sapiens, UniProt O75531 1-89)
T1 sequence: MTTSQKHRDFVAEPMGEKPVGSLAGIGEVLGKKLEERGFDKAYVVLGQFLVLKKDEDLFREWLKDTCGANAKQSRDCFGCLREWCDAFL
Assay: EMSA; EC50; 10 mM KH2PO4, 100 mM NaCl, 0.01% IGEPAL, 5 nM Cy5 DNA, 30 min at 37 C; pH not stated; 8% gel in 1x TBE at 4 C
Conditions: protein: recombinant; tags: N-terminal His6 (pET-28a NdeI-XhoI); chain copies: 2; label: 5' Cy5 on forward strand; blunt

B1: Cy5 40 bp dsDNA (dsDNA)
DNA 1: AGGAGCGCCAGACCCACCAAGAGCCCTCTATCGGTTGGGA
DNA 2: TCCCAACCGATAGAGGGCTCTTGGTGGGTCTGGCGCTCCT
apparent K (half saturation): 15.1 ± 1.96 nM
